The values below come from the supplement of paper PMC10567573.

A short description of the series: protein stability index of a GFP-peptide fusion (GPS, HEK-293T) (PSI 1-6); higher = more stable.
Where [1] appears, read: treatment: DMSO, c terminus: a fixed tail appended.
Setting [2] is: treatment: MLN4924 1 uM, 8 h, c terminus: a fixed tail appended.

± gives the standard deviation.
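Note: 24-mer peptide tiles fused after GFP, lentivirally expressed, FACS-sorted into six equal bins by GFP/DsRed ratio, decoded by Illumina sequencing, PSI is the read-weighted mean bin number.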

For the sequence SKAPVLTYGQPKQAPPADFIPAHV [EFHC1], the protein stability index was 3.93 ± 0.18 under setting [1] and 4.1 ± 0.25 under setting [2].
The corresponding values for SKGQPRSQEESEEGEEDATSEVDK [CHGB] are 5.59 ± 0.21 and 5.4 ± 0.19.
The corresponding values for SKIDALSSEKLNLQKDLETRPTQH [CEP70] are 4.71 ± 0.29 and 4.71 ± 0.073.
The corresponding values for SKIGSTDNIKYQPKGGQVQIVTKK [MAP2] are 4.37 ± 0.17 and 4.63 ± 0.18.
Turning to SKRLYGVYDNEKKLQLQLNETKSQ [PLD5], the protein stability index under setting [1] came to 4.19 ± 0.27 and the protein stability index under setting [2] was 4 ± 0.18.
On to SKSLMTSVPMNGTSIQWKNHDQNN [EDNRA], for which the protein stability index came to 4.25 ± 0.045 under setting [1] and 4.41 ± 0.18 under setting [2].
On to SKYGIINLQSLKTPTLKVFMHENL [DCAF4], for which the protein stability index under setting [1] turned out to be 1.8 ± 0.43 and the protein stability index under setting [2] was 2.03 ± 0.26.
The matching figures for SLAIFSEELDGLCFKGELPLRAVH [PLEKHN1]: 2.42 ± 0.13 and 2.46 ± 0.43.
The matching figures for SLELDKMAHGYGEESEEERGLEPG [CHGB]: 5.49 ± 0.46 and 5.41 ± 0.19.
Take SLGIELHCNVSNILHMNGSQSSTY [ZNF396]: the protein stability index came to 2.18 ± 0.38 under setting [1] and 2.16 ± 0.27 under setting [2].
The corresponding values for SLHPESGQENDATSPHFSTRHEGS [CD69] are 5.4 ± 0.23 and 5.33 ± 0.14.
In turn, SLKFKSRVPQTWSKRLYGVYDNEK [PLD5] had a protein stability index under setting [1] of 2.55 ± 0.39 and a protein stability index under setting [2] of 2.71 ± 0.74.
Consider SLLGEPCAGPGFTHNIAHGSLGFE [SPAG8], for which the protein stability index by setting is: under setting [1], 3.03 ± 0.45; under setting [2], 2.92 ± 0.4.
The corresponding values for SLLPGAVEQPQPQFISRFLEGQSG [NEK8] are 3.5 ± 0.18 and 3.73 ± 0.16.
The matching figures for SLQPRRSIAFRLRLASFDSSGKLI [GMCL1]: 2.62 ± 0.44 and 2.39 ± 0.27.
As for SLTDISQPTIVEALLGYEMVQVAC [NEK8], the protein stability index is, setting by setting: under setting [1], 2.73 ± 0.64; under setting [2], 2.4 ± 0.5.
SNFYTVAVTSLSSQIQYMNTVVST [TMEM106C]: the protein stability index is, setting by setting: under setting [1], 3.13 ± 0.59; under setting [2], 3.11 ± 0.49.
The matching figures for SNITSETGFRTISSLEEIVEKQGD [TMEM192]: 5.44 ± 0.19 and 5.35 ± 0.15.
The matching figures for SNIVIMLVGNKSDLRHLRAVPTDE [RAB11A]: 2.42 ± 0.34 and 2.25 ± 0.28.
The sequence SNKKMLLLVGGLPPGPDRLPSNLV [KLHL14] showed a protein stability index under setting [1] of 2.17 ± 0.19 and a protein stability index under setting [2] of 2.34 ± 0.22.
With SPELQEEFGYNAETQKLLCKNGET [ARFIP2], the protein stability index runs as follows: under setting [1], 5.31 ± 0.29; under setting [2], 5.46 ± 0.11.
As for SPICLSTSLSLAQVGAKGDTANEI [SERPINB5], the protein stability index runs as follows: under setting [1], 4.68 ± 0.15; under setting [2], 4.54 ± 0.21.
The matching figures for SPNFDGWFKTRRKEMTQKLEALHL [DENND6A]: 2.91 ± 0.18 and 3.2 ± 0.41.
The matching figures for SQGNFEGNFESLDLAEFAKKQPWW [FUNDC2]: 3.63 ± 0.27 and 3.63 ± 0.46.
The corresponding values for SQLDEDEHGLHTKYIHRMMQIEFI [TRAF3IP2] are 2.44 ± 0.1 and 2.56 ± 0.34.
As to SQSPRAAGPREGHSHSHHHHHRG [PBXIP1], the protein stability index by setting is: (treatment: DMSO, c terminus: native) 3.02 ± 0.69; (treatment: MLN4924 1 uM, 8 h, c terminus: native) 4.03 ± 0.49.
On to SQSWHTESLPVSLGPESWQQIAMD [BCL2L13], for which the protein stability index reads like this: under setting [1], 3.79 ± 0.24; under setting [2], 3.93 ± 0.23.
With SQVTATSGNGDFGDWSAFNQAPSG [CLINT1], the protein stability index is, setting by setting: under setting [1], 4.59 ± 0.068; under setting [2], 4.36 ± 0.21.
With SRIQEWYEFQIPYICPDYQSYFKT [KRT36], the protein stability index reads like this: under setting [1], 2.29 ± 0.31; under setting [2], 2.17 ± 0.36.
